Laboratory results: publication PMC4278905, “Differential Binding of Lef1 and Msx1/2 Transcription Factors to Dkk1 CNEs Correlates with Reporter Gene Expression In Vivo”

Biological target: Lef1 (UniProt P27782 1-397)
Test: EMSA; 100 ng Lef1, 5 mM Mg2+, 1 ug poly(dI-dC); 20 mM Hepes pH 7.9, 60 mM KCl, 1 mM EDTA, 1 mM DTT, 5 mM MgCl2, 10% glycerol, 1 ug poly(dI-dC), 30 min on ice; 5% native PAGE, 0.5x TBE, 4 C
Details: protein: recombinant; tags: GST removed by thrombin (pGEX4T-1); label: 32P (T4 PNK, 5' end); blunt

Chain of Lef1 (P27782 whole entry): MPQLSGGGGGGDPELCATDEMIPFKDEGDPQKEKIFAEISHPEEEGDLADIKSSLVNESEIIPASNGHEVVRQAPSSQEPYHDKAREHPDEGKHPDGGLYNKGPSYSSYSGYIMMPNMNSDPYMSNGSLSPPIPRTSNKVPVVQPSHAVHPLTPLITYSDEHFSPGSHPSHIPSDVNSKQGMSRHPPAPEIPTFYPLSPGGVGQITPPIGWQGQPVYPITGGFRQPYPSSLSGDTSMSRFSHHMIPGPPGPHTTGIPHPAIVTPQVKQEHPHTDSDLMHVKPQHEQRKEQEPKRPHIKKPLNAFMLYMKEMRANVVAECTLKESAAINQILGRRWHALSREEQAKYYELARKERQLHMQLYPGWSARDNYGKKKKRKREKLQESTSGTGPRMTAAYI

Binder	binding result
CNE195 Tcf/Lef (dsDNA) DNA 1: ATGAATGAAACTTCAAAGGGCAAGGGTCA DNA 2: TGACCCTTGCCCTTTGAAGTTTCATTCAT	binds
CNE195Mut(TCF/Lef) (dsDNA) DNA 1: ATGAATGAAACTTGAATTCGCAAGGGTCA DNA 2: TGACCCTTGCGAATTCAAGTTTCATTCAT	no binding
